Among the data in patent publication US5512545 are Mitogenesis ng/ml ([3H]thymidine uptake by Swiss 3T3 cells; activity read from the dose response curve of the PDGF-BB standard c-sis) values, retold here.

The assay has as its target PDGF receptors (alpha and beta sub-units).

In turn, “PDGF-B (naturally occurring, full length; product of Comparative Example A) (ligand)” registered a Mitogenesis ng/ml ([3H]thymidine uptake by Swiss 3T3 cells; activity read from the dose response curve of the PDGF-BB standard c-sis) of 308 ng/mL.
